{"source": "patent US20250186597A1", "about": "“TARGETED IMMUNE ACTIVATION WITH IL-18 IMMUNOCYTOKINES” (BRIGHT PEAK THERAPEUTICS AG, priority 2023, published 2025)", "key": {"[1]": {"biological_target": "recombinant Human Fc gamma RI/CD64 Protein (R&D systems, 1257-FC-050, CF) (human) (UniProt P12314)", "sequence (P12314 16-288 limits assumed)": "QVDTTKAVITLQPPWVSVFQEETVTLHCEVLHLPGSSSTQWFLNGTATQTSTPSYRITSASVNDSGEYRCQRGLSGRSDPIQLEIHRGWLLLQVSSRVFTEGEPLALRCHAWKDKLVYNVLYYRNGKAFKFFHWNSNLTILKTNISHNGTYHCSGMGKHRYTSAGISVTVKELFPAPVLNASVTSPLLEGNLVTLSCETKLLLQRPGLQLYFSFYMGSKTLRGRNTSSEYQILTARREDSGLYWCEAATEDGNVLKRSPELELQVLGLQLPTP", "test": "ELISA; antibody coated, Fc gamma receptor titrated"}, "[2]": {"biological_target": "recombinant Human Fc gamma RIIB/CD32b Avi-tag Protein (R&D systems, AVI1875-050, CF) (human) (UniProt P31994)", "sequence (P31994 46-217 limits assumed)": "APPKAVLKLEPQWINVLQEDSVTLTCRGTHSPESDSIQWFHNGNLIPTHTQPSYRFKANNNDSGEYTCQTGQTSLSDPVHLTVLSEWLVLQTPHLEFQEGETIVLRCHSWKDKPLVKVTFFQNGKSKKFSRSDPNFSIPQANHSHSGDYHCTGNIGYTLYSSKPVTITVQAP", "test": "ELISA; antibody coated, Fc gamma receptor titrated"}, "[3]": {"biological_target": "recombinant Human Fc gamma RIIA/CD32a (H167) Protein (R&D systems, 9595-CD-050, CF) (human) (UniProt P12318)", "sequence (P12318 36-218 limits assumed)": "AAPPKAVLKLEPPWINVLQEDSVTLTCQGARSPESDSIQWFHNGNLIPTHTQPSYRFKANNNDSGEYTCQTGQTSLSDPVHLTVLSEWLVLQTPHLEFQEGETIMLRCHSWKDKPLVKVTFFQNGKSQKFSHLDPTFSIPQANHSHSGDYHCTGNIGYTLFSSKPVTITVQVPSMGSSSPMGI", "test": "ELISA; antibody coated, Fc gamma receptor titrated"}, "[4]": {"biological_target": "recombinant Human Fc gamma RIIIA/CD16a Protein (R&D systems, 4325-FC-050; CF) (human) (UniProt P08637)", "sequence (P08637 17-208 limits assumed)": "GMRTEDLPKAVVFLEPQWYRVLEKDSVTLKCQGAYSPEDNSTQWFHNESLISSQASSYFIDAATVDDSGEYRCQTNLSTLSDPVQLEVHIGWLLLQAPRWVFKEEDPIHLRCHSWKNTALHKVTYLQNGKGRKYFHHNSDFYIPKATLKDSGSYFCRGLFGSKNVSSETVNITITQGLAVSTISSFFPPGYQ", "test": "ELISA; antibody coated, Fc gamma receptor titrated"}, "[5]": {"biological_target": "recombinant biotinylated human FcRn (human) (UniProt P55899)", "sequence (P55899 24-297 limits assumed, chain 1 of 2)": "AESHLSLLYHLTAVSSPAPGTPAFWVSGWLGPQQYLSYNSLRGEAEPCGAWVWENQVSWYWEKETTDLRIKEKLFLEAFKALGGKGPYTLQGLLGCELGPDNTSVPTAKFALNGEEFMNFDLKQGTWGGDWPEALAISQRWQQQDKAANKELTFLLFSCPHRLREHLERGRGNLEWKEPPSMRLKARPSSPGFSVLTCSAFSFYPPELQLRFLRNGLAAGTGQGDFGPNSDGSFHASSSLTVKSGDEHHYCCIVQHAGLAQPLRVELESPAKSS", "sequence (chain, as listed by the source limits assumed, chain 2 of 2)": "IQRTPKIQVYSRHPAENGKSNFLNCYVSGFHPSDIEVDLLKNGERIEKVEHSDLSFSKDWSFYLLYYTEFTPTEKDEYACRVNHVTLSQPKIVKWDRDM", "test": "AlphaLISA competition at pH 6; competitor: human IgG on acceptor beads"}, "[6]": {"biological_target": "recombinant biotinylated human FcRn (human) (UniProt P55899)", "test": "AlphaLISA competition at pH 6; test molecule titrated (x axis) against human IgG-conjugated acceptor beads for biotinylated human FcRn on streptavidin donor beads"}}}
{"substance": "LZM-009 (antibody)", "values": [{"measurement": "Kd", "setting": "[1]", "value": 0.315, "unit": "nM"}, {"measurement": "Kd", "setting": "[2]", "value": 2630, "unit": "nM"}, {"measurement": "Kd", "setting": "[3]", "value": 1350, "unit": "nM"}, {"measurement": "Kd", "setting": "[4]", "value": 1710, "unit": "nM"}, {"measurement": "Kd", "setting": "[5]", "value": 6, "unit": "nM"}, {"measurement": "IC50 (read off the curve)", "setting": "[6]", "value": 5, "unit": "nM"}]}
